Measured values published in US20220144956A1 (published 2022).

Columns and labels:
[1] = target: T1, His-tagged human CD5 antigen (human, UniProt P06127 25-372); test: Octet
T1 chain: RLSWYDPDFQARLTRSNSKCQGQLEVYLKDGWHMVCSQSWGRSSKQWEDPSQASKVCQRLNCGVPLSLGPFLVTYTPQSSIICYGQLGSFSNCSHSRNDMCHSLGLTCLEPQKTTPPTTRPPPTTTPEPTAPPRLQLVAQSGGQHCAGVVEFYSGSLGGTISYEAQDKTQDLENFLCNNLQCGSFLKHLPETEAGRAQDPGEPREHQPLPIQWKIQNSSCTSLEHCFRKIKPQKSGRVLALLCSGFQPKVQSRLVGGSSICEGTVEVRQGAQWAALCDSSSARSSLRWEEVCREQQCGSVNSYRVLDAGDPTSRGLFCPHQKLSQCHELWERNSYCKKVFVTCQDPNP

[2] = target: human TGFßRII (antigen of the Octet experiments) (human, UniProt P37173 23-166)
human TGFßRII (antigen of the Octet experiments), sequence (P37173 23-166): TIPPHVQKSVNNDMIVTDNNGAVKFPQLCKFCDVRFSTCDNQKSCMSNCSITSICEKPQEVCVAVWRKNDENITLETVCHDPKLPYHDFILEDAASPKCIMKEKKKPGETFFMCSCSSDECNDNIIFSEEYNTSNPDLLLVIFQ

[3] = target: Unstimulated Cyno CD8 T cells (cynomolgus monkey); test: FACS cell binding; CD8 T cells; avid
[4] = target: Unstimulated Cyno CD4 T cells (cynomolgus monkey); test: FACS cell binding; CD4 T cells; avid
[5] = target: Unstimulated Cyno CD3+ cells (cynomolgus monkey); test: FACS cell binding; CD3+ cells; avid
[6] = target: αCD5 (Clone 11) x αTGFßRII; test: Octet
[7] = target: αCD5 (Clone 8) x αTGFßRII; test: Octet
[8] = target: αCD5 (Clone 1) x αTGFßRII; test: Octet
[9] = target: αCD5 (Clone 7) x αTGFßRII; test: Octet
[10] = target: αCD5 (Clone 10) x αTGFßRII; test: Octet
[11] = target: αCD5 (Clone 5) x αTGFßRII; test: Octet
[12] = target: αCD5 (Clone 4) x αTGFßRII; test: Octet
[13] = target: αCD5 (Clone 6) x αTGFßRII; test: Octet
[14] = target: αCD5 (Clone 3) x αTGFßRII; test: Octet
[15] = target: αCD5 (Clone 9) x αTGFßRII; test: Octet

B1: XENP35399 (bispecific antibody)
heavy: EVQLVESGGGVVQPGRSLRLSCTFSGFSLSTSGMGVGWIRQAPGKGLEWVAHIWWDDDVYYNPSLKSRLTITKDASTDTVYMELSSLRSEDTAVYYCVRRRATGTGFDYWGQGTLVTVSSASTKGPSVFPLAPSSKSTSGGTAALGCLVKDYFPEPVTVSWNSGALTSGVHTFPAVLQSSGLYSLSSVVTVPSSSLGTQTYICNVNHKPSDTKVDKKVEPKSCDKTHTCPPCPAPPVAGPSVFLFPPKPKDTLMISRTPEVTCVVVDVKHEDPEVKFNWYVDGVEVHNAKTKPREEEYNSTYRVVSVLTVLHQDWLNGKEYKCKVSNKALPAPIEKTISKAKGQPREPQVYTLPPSREEMTKNQVSLTCDVSGFYPSDIAVEWESDGQPENNYKTTPPVLDSDGSFFLYSKLTVDKSRWEQGDVFSCSVMHEALHNHYTQKSLSLSPGK
scFv-Fc: QLQVQESGPGLVKPSETLSLTCTVSGGSISNSYFSWGWIRQPPGKGLEWIGSFYYGEKTYYNPSLKSRATISIDTSKSQFSLKLSSVTAADTAVYYCPRGPTVIRGVIDSWGQGTLVTVSSGKPGSGKPGSGKPGSGKPGSEIVLTQSPATLSLSPGERATLSCRASQSVRSYLAWYQQKPGQAPRLLIYDASNRATGIPARFSGSGSGTDFTLTISSLEPEDFAVYYCQQRSNWPPTFGQGTKVEIKEPKSSDKTHTCPPCPAPPVAGPSVFLFPPKPKDTLMISRTPEVTCVVVDVKHEDPEVKFNWYVDGVEVHNAKTKPREEQYNSTYRVVSVLTVLHQDWLNGKEYKCKVSNKALPAPIEKTISKAKGQPREPQVYTLPPSREQMTKNQVKLTCLVKGFYPSDIAVEWESNGQPENNYKTTPPVLDSDGSFFLYSKLTVDKSRWQQGNVFSCSVMHEALHNHYTQKSLSLSPGK
light: NIVMTQSPSSLSASVGDRVTITCQASQDVGTAVAWYQQKPDQSPKLLIYWTSTRHTGVPDRFTGSGSGTDFTLTISSLQPEDIATYFCHQYNSYNTFGSGTKLEIKRTVAAPSVFIFPPSDEQLKSGTASVVCLLNNFYPREAKVQWKVDNALQSGNSQESVTEQDSKDSTYSLSSTLTLSKADYEKHKVYACEVTHQGLSSPVTKSFNRGEC
Q: With B1 as the binder, how does the Kd [1] read?
A: Its Kd is 1.69 nM.

Q: And the Kd [2]?
A: The Kd was 0.97 nM.

B2: XENP35401 anti-CD5 clone 5D7 Bivalent (antibody, V domains shown)
VH: EVQLVESGGGVVQPGRSLRLSCTFSGFSLSTSGMGVGWIRQAPGKGLEWVAHIWWDDDVYYNPSLKSRLTITKDASTDTVYMELSSLRSEDTAVYYCVRRRATGTGFDYWGQGTLVTVSS
VL: NIVMTQSPSSLSASVGDRVTITCQASQDVGTAVAWYQQKPDQSPKLLIYWTSTRHTGVPDRFTGSGSGTDFTLTISSLQPEDIATYFCHQYNSYNTFGSGTKLEIKR
Q: Which EC50 [3] does the source give for B2 here?
A: The EC50 was 0.415 µg/mL.

Q: What about the EC50 [4] of the same binder?
A: The EC50 was 0.584 µg/mL.

Q: What about the EC50 [5] of the same binder?
A: Its EC50 is 0.508 µg/mL.

B3: Human (receptor)
chain: RLSWYDPDFQARLTRSNSKCQGQLEVYLKDGWHMVCSQSWGRSSKQWEDPSQASKVCQRLNCGVPLSLGPFLVTYTPQSSIICYGQLGSFSNCSHSRNDMCHSLGLTCLEPQKTTPPTTRPPPTTTPEPTAPPRLQLVAQSGGQHCAGVVEFYSGSLGGTISYEAQDKTQDLENFLCNNLQCGSFLKHLPETEAGRAQDPGEPREHQPLPIQWKIQNSSCTSLEHCFRKIKPQKSGRVLALLCSGFQPKVQSRLVGGSSICEGTVEVRQGAQWAALCDSSSARSSLRWEEVCREQQCGSVNSYRVLDAGDPTSRGLFCPHQKLSQCHELWERNSYCKKVFVTCQDPNP
Q: How did the Kd [6] turn out when B3 was run?
A: The Kd was 18.6 nM.

Q: What about the Kd [7] of the same binder?
A: Its Kd is 8.72 nM.

Q: And the Kd [8]?
A: The Kd was 7.91 nM.

Q: And the Kd [9]?
A: The Kd was 2.05 nM.

Q: And the Kd [10]?
A: Its Kd is 1.24 nM.

Q: And the Kd [11]?
A: The Kd was 12.9 nM.

Q: What about the Kd [12] of the same binder?
A: The Kd was 7.03 nM.

Q: And the Kd [13]?
A: Its Kd is 11.1 nM.

Q: And the Kd [14]?
A: The Kd was 1.53 nM.

Q: What about the Kd [15] of the same binder?
A: Its Kd is 2.99 nM.
